The text below walks through data of EP4541444A1.

The target in one test is trastuzumab-GFP. As to the kind of experiment: SPR (Biacore), fusion on CM5 chip, 2 µM Fc block, then trastuzumab-eGFP 1 µM.
Test [1] deals with AAV9 viral particles (adeno-associated virus serotype 9). As to the kind of experiment: SPR (Biacore), ligand amine coupled to CM5 chip, AAV9 2E12 vp/ml. For orientation: SPR reads the build-up and loss of mass on a sensor chip optically.
Test [2] addresses epidermal growth factor receptor (Example 4A) (UniProt P00533). The test can be described thus: SPR (Biacore), fusion on CM5 chip, EGFR 200 nM.
Test [3] addresses EGFR (SinoBiological, 10001-H08H) (UniProt P00533). The test can be described thus: SPR (Biacore), fusion on CM5 chip, EGFR 200 nM.
Test [4] addresses AAV9 viral particles (adeno-associated virus serotype 9). As to the kind of experiment: SPR (Biacore), biotinylated ligand on SA chip, AAV9 2E12 vp/ml.

B1: 4B-5 (VHH)
VHH: QVQLQESGGGLVQPGGSLRLSCAASGRTSINPYMAWFRQAPGKQREFVAAISSGGVYTYYTDSVKGRFTISRDNAKTTVYLQMNSLKPEDTAVYYCAADFRRGGNWNVDPFRYDYQYWGQGTQVTVSS
Molecule B1 yielded a Binding capacity trastuzumab-eGFP (1 µM) with trastuzumab-GFP of 4300 RU.

B2: 4B-6 (VHH)
VHH: QVQLQQSGGGSVQAGGSLRLSCTISGRTSINPYMAWFRQRPGKEREFVAAISSGGVYTYYADSVKGRFTISRDNAKNTVYLQMNSLKPEDTAVYYCAADFRRGGNWNVDPFRYDYDYWGQGTQVTVSS
Molecule B2 yielded a Binding capacity trastuzumab-eGFP (1 µM) in the test with trastuzumab-GFP of 3910 RU.

B3: 2A-1 (VHH)
VHH: QVQLQQSGGGSVQAGGSLRLSCTISGRTLSDYTMGWFRQRPGKEREFVAAISWSGAYTKYADSVKGRFTISRDNAKNTVYLQMNSLKPEDTAVYYCAAGPTGLLSKKATPADYDYWGQGTQVTVSS
B3 yielded an AAV9 capacity (2E12 vp/ml) in test [1] of 11300 RU.

B4: 4A-5 (VHH)
VHH: QVQLQQSGGGSVQAGGSLRLSCTISGRTFSSYAMGWFRQRPGKEREFVAAINWSSGSTYYADSVKGRFTISRDNAKNTVYLQMNSLKPEDTAVYYCAAGYQINSGNYNFKDYEYDYWGQGTQVTVSS
With B4, the Binding capacity EGFR (200 nM) in test [2] worked out at 2350 RU.

B5: 4B-4 (VHH)
VHH: QVQLQQSGGGSVQAGGSLRLSCTISGRTFSSYAMGWFRQRPGKEREFVAAINWSSGSTYYADSVKGRFTISRDNAKNTVYLQMNSLKPEDTAVYYCAAGYQINSGNYNFKDYEYDYWGQGTQVTVSS
In the case of B5, the Binding capacity EGFR (200 nM) in test [3] worked out at 1900 RU.

B6: 2B-1 (VHH)
chain: QVQLQQSGGGSVQAGGSLRLSCTISGRTLSDYTMGWFRQRPGKEREFVAAISWSGAYTKYADSVKGRFTISRDNAKNTVYLQMNSLKPEDTAVYYCAAGPTGLLSKKATPADYDYWGQGTQVTVSSQASAEAAAKEAAAKAGQVQLQQSGGGSVQAGGSLRLSCTISGRTLSDYTMGWFRQRPGKEREFVAAISWSGAYTKYADSVKGRFTISRDNAKNTVYLQMNSLKPEDTAVYYCAAGPTGLLSKKATPADYDYWGQGTQVTVSSQASAEAAAKEAAAKAGQVQLQQSGGGSVQAGGSLRLSCTISGRTLSDYTMGWFRQRPGKEREFVAAISWSGAYTKYADSVKGRFTISRDNAKNTVYLQMNSLKPEDTAVYYCAAGPTGLLSKKATPADYDYWGQGTQVTVSSQASHHHHHHC
In test [4], B6 displayed an AAV9 capacity (2E12 vp/ml) of 13400 RU.
